Test results from patent US8673850B2, “PCSK9 inhibitors and methods of use thereof” (Institut de Recherches Cliniques de Montreal, priority 2008, dated 2014).

Target: PCSK9-V5 (Homo sapiens, UniProt Q8NBP7)
Assay: Far Western blot with PCSK9-V5 conditioned media
Format: binding
Design: made in house; host or cells: CHO-K1 cells (conditioned medium, not purified)
Details: lysates of cells overexpressing the construct
Method: Lysates (20 to 30 μg protein), media or purified AnxA2-(His)6 were heated in reducing or non-reducing Laemmli sample buffer, resolved by SDS-PAGE on 8% glycine gels and electro-transferred onto nitrocellulose membranes (GE Healthcare). Following 1 h incubation in 5% skim milk in Tris-Buffered Saline-0.1% Tween (TBST), membranes where incubated with conditioned media of CHO-K1 cells overexpressing either an empty vector (pIRES-V5), PC5A-V5, CHRD-V5, pIRES-D374Y, PCSK9-V5 or its V5-tagged mutants, or incubated with purified AnxA2-(His)6 for 3 h at room temperature. […] For competition experiments, 10 μg of His-tagged PCSK9 or CHRD were added to the PCSK9-V5 media before Far Western blotting. For PCSK9 binding requirements with the ˜33 kDa protein, 1M NaCl, 10 mg/ml heparin, 1M NaCl+10 mg/ml heparin, or 100 mM EDTA were added to the PCSK9-V5 conditioned media used for Far Western blotting.
Wild type human Annexin A2 (AnxA2) (ATCC #MGC-2257) and Annexin A1 (AnxA1) (ATCC #MGC-5095) were purchased from ATCC and subcloned into NheI/SacI digested pIRES2-EGFP vector. An HA epitope ([…]) was fused by PCR mutagenesis at the C-terminus of both AnxA1 and AnxA2. Two-steps PCRs were performed on AnxA2 cDNA to introduce point mutations (N62Q; S64A; K28S+D34N+E36S; R37S+E43H+K47M; 77RRTKK (SEQ ID NO: 26)>AATAK (SEQ ID NO: 27); ^77RRTKK (SEQ ID NO: 26)>AATAA (SEQ ID NO: 28); ^77RRTKKELASALK (SEQ ID NO: 29)>^77AATAAELASALA (SEQ ID NO: 30); 80KKELA (SEQ ID NO: 31)>GKPLD (SEQ ID NO: 32)), or amino acid (aa) deletions (Δ2-24, aa 2-24; ΔR1, aa 37-108; ΔR2, aa 109-192; ΔR3, aa 193-268; ΔR4, aa 269-339; Δ25-36, aa 25-36; Δ37-48, aa 37-48; Δ49-61, aa 49-61; Δ62-75, aa 62-75; Δ37-66, aa 37-66; Δ74-88, aa 74-88; Δ82-88, aa 82-88; Δ89-101, aa 89-101; Δ102-108, aa 102-108) into pIRES2-AnxA2-EGFP vector (see Table 3 above). In addition, using PCR, the AnxA2 segment aa 49-75 was swapped with the corresponding AnxA1 segment aa 58-84 [AnxA1 (aa 58-84)>AnxA2 (aa 49-75)]. Similar swaps were performed for the corresponding AnxA2 sequence with AnxA1 (AnxA1>AnxA2: aa 25-27; aa 28-30; aa 31-33; aa 34-36; aa 37-39; aa 40-42; aa 43-45; aa 46-48; aa 49-75; aa 49-61; aa 62-75). All final cDNA constructs were verified by DNA sequencing.

Sequence of PCSK9-V5 (Q8NBP7 153-692): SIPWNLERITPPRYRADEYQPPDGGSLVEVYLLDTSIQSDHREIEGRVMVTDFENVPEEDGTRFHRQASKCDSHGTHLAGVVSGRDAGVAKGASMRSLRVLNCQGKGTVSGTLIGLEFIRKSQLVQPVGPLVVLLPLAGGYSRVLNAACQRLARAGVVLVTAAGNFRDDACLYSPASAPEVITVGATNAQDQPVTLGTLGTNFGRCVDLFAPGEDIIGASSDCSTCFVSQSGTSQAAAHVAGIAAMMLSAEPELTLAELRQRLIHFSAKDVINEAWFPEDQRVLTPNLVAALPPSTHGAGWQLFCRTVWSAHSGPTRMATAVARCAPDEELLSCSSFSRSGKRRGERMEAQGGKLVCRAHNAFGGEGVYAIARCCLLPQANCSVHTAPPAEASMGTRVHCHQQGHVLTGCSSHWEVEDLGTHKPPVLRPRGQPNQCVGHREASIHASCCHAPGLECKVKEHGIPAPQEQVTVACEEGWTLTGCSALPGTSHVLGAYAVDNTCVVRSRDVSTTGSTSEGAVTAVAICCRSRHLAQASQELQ
Sequence of PCSK9-V5 (Q8NBP7 31-152 partner limits assumed): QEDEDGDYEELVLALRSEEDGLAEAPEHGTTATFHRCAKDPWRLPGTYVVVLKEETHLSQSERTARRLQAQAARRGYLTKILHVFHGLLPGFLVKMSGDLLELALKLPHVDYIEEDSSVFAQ

Molecule	PCSK9-V5 binding by Far Western blot
77AATAA81: AnxA2 point mutant 77RRTKK81 to AATAA (protein) MSTVHEILCKLSLEGDHSTPPSAYGSVKAYTNFDAERDALNIETAIKTKGVDEVTIVNILTNRSNAQRQDIAFAYQAATAAELASALKSALSGHLETVILGLLKTPAQYDASELKASMKGLGTDEDSLIEIICSRTNQELQEINRVYKEMYKTDLEKDIISDTSGDFRKLMVALAKGRRAEDGSVIDYELIDQDARDLYDAGVKRKGTDVPKWISIMTERSVPHLQKVFDRYKSYSPYDMLESIRKEVKGDLENAFLNLVQCIQNKPLYFADRLYDSMKGKGTRDKVLIRIMVSRSEVDMLKIRSEFKRKYGKSLYYYIQQDTKGDYQKALLYLCGGDDYPYDVPDYA	is critical for the AnxA2-PCSK9 binding
77AATAAELASALA88: AnxA2 point mutant 77…88 to AATAAELASALA (protein, AnxA2 point mutant 77…88 to …) MSTVHEILCKLSLEGDHSTPPSAYGSVKAYTNFDAERDALNIETAIKTKGVDEVTIVNILTNRSNAQRQDIAFAYQAATAAELASALASALSGHLETVILGLLKTPAQYDASELKASMKGLGTDEDSLIEIICSRTNQELQEINRVYKEMYKTDLEKDIISDTSGDFRKLMVALAKGRRAEDGSVIDYELIDQDARDLYDAGVKRKGTDVPKWISIMTERSVPHLQKVFDRYKSYSPYDMLESIRKEVKGDLENAFLNLVQCIQNKPLYFADRLYDSMKGKGTRDKVLIRIMVSRSEVDMLKIRSEFKRKYGKSLYYYIQQDTKGDYQKALLYLCGGDDYPYDVPDYA	abolished binding of AnxA2 to PCSK9
K28S+D34N+E36S: AnxA2 with Lys28, Asp34, Glu36 replaced by AnxA1 Ser, Asn, Ser (protein) MSTVHEILCKLSLEGDHSTPPSAYGSVSAYTNFNASRDALNIETAIKTKGVDEVTIVNILTNRSNAQRQDIAFAYQRRTKKELASALKSALSGHLETVILGLLKTPAQYDASELKASMKGLGTDEDSLIEIICSRTNQELQEINRVYKEMYKTDLEKDIISDTSGDFRKLMVALAKGRRAEDGSVIDYELIDQDARDLYDAGVKRKGTDVPKWISIMTERSVPHLQKVFDRYKSYSPYDMLESIRKEVKGDLENAFLNLVQCIQNKPLYFADRLYDSMKGKGTRDKVLIRIMVSRSEVDMLKIRSEFKRKYGKSLYYYIQQDTKGDYQKALLYLCGGDD	slightly reduced the ability of PCSK9 to bind AnxA2
R37S+E43H+K47M: AnxA2 with Arg37, Glu43, Lys47 replaced by AnxA1 Ser, His, Met (protein) MSTVHEILCKLSLEGDHSTPPSAYGSVKAYTNFDAESDALNIHTAIMTKGVDEVTIVNILTNRSNAQRQDIAFAYQRRTKKELASALKSALSGHLETVILGLLKTPAQYDASELKASMKGLGTDEDSLIEIICSRTNQELQEINRVYKEMYKTDLEKDIISDTSGDFRKLMVALAKGRRAEDGSVIDYELIDQDARDLYDAGVKRKGTDVPKWISIMTERSVPHLQKVFDRYKSYSPYDMLESIRKEVKGDLENAFLNLVQCIQNKPLYFADRLYDSMKGKGTRDKVLIRIMVSRSEVDMLKIRSEFKRKYGKSLYYYIQQDTKGDYQKALLYLCGGDD	significant decrease of binding
80KKELA>GKPLD: AnxA2 with 80KKELA84 replaced by AnxA1 loop sequence 89GKPLD93 (protein, UniProt P07355 2-339, looked up, variant K80G E82P A84D) Annexin A2: STVHEILCKLSLEGDHSTPPSAYGSVKAYTNFDAERDALNIETAIKTKGVDEVTIVNILTNRSNAQRQDIAFAYQRRTGKPLDSALKSALSGHLETVILGLLKTPAQYDASELKASMKGLGTDEDSLIEIICSRTNQELQEINRVYKEMYKTDLEKDIISDTSGDFRKLMVALAKGRRAEDGSVIDYELIDQDARDLYDAGVKRKGTDVPKWISIMTERSVPHLQKVFDRYKSYSPYDMLESIRKEVKGDLENAFLNLVQCIQNKPLYFADRLYDSMKGKGTRDKVLIRIMVSRSEVDMLKIRSEFKRKYGKSLYYYIQQDTKGDYQKALLYLCGGDD	had no appreciable effect on PCSK9 binding
SW49-75: AnxA2 segment aa 49-75 swapped with AnxA1 aa 58-84 (protein) MSTVHEILCKLSLEGDHSTPPSAYGSVKAYTNFDAERDALNIETAIKTKGVDEATIIDILTKRNNAQRQQIKAAYQRRTKKELASALKSALSGHLETVILGLLKTPAQYDASELKASMKGLGTDEDSLIEIICSRTNQELQEINRVYKEMYKTDLEKDIISDTSGDFRKLMVALAKGRRAEDGSVIDYELIDQDARDLYDAGVKRKGTDVPKWISIMTERSVPHLQKVFDRYKSYSPYDMLESIRKEVKGDLENAFLNLVQCIQNKPLYFADRLYDSMKGKGTRDKVLIRIMVSRSEVDMLKIRSEFKRKYGKSLYYYIQQDTKGDYQKALLYLCGGDDYPYDVPDYA	abolished

The next lines start with the values.

PCSK9-V5 binding by Far Western blot	Molecule
is critical for the AnxA2-PCSK9 binding	^77AATAK^81: AnxA2 point mutant 77RRTKK81 to AATAK (protein) MSTVHEILCKLSLEGDHSTPPSAYGSVKAYTNFDAERDALNIETAIKTKGVDEVTIVNILTNRSNAQRQDIAFAYQAATAKELASALKSALSGHLETVILGLLKTPAQYDASELKASMKGLGTDEDSLIEIICSRTNQELQEINRVYKEMYKTDLEKDIISDTSGDFRKLMVALAKGRRAEDGSVIDYELIDQDARDLYDAGVKRKGTDVPKWISIMTERSVPHLQKVFDRYKSYSPYDMLESIRKEVKGDLENAFLNLVQCIQNKPLYFADRLYDSMKGKGTRDKVLIRIMVSRSEVDMLKIRSEFKRKYGKSLYYYIQQDTKGDYQKALLYLCGGDDYPYDVPDYA
abolished PCSK9 binding	Δ102-108: AnxA2 deletion of aa 102-108 (protein) MSTVHEILCKLSLEGDHSTPPSAYGSVKAYTNFDAERDALNIETAIKTKGVDEVTIVNILTNRSNAQRQDIAFAYQRRTKKELASALKSALSGHLETVILGYDASELKASMKGLGTDEDSLIEIICSRTNQELQEINRVYKEMYKTDLEKDIISDTSGDFRKLMVALAKGRRAEDGSVIDYELIDQDARDLYDAGVKRKGTDVPKWISIMTERSVPHLQKVFDRYKSYSPYDMLESIRKEVKGDLENAFLNLVQCIQNKPLYFADRLYDSMKGKGTRDKVLIRIMVSRSEVDMLKIRSEFKRKYGKSLYYYIQQDTKGDYQKALLYLCGGDDYPYDVPDYA
abolished PCSK9 binding	Δ25-36: AnxA2 deletion of aa 25-36 (protein) MSTVHEILCKLSLEGDHSTPPSAYRDALNIETAIKTKGVDEVTIVNILTNRSNAQRQDIAFAYQRRTKKELASALKSALSGHLETVILGLLKTPAQYDASELKASMKGLGTDEDSLIEIICSRTNQELQEINRVYKEMYKTDLEKDIISDTSGDFRKLMVALAKGRRAEDGSVIDYELIDQDARDLYDAGVKRKGTDVPKWISIMTERSVPHLQKVFDRYKSYSPYDMLESIRKEVKGDLENAFLNLVQCIQNKPLYFADRLYDSMKGKGTRDKVLIRIMVSRSEVDMLKIRSEFKRKYGKSLYYYIQQDTKGDYQKALLYLCGGDDYPYDVPDYA
